Data taken from publication PMC11109247.

Legend:
[1] = biological target: T1, sF ectodomain (Nipah henipavirus), Q9IH63; experiment: MST; conditions: modification not given
T1 chain: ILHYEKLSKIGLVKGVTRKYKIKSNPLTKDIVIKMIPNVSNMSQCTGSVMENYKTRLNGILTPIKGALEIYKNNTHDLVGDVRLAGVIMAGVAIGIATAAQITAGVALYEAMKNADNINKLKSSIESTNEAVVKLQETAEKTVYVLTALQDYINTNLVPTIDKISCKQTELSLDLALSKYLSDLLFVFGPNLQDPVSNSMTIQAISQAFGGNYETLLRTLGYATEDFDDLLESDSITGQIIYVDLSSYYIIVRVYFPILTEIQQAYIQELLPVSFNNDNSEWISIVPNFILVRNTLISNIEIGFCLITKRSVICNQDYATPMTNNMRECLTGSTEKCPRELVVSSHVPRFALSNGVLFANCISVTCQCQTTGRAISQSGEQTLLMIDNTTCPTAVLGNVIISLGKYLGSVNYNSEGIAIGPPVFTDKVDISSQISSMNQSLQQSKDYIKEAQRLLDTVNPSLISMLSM

[2] = biological target: T1, sF ectodomain (Nipah henipavirus), …; experiment: BLI; conditions: modification not given

HECNISCPNPLPFREYRPQTEGV [P-59 peptide peptide P-59, Q9IH62]
Kd [1]: 5000 nM | Kd [2]: 190 nM
